Columns and labels:
[1] = target: T1, human serum albumin (human, UniProt P02768 25-609); assay: ELISA, coated albumin, E. coli supernatant
T1 construct: mature; also called human Alb

[2] = target: T2, horse serum albumin (horse, UniProt P35747 25-607); assay: ELISA, coated albumin, E. coli supernatant
T2 construct: mature; also called horse Alb; Equine albumin

[3] = target: T3, dog serum albumin (dog, UniProt P49822 25-608); assay: ELISA, coated albumin, E. coli supernatant
T3 construct: mature; also called dog Alb; Canine albumin

[4] = target: T1, human serum albumin; assay: ELISA, E. coli supernatant
[5] = target: T4, tetanus neurotoxin (TeNT), authentic tetanus holotoxin (Clostridium tetani, UniProt P04958 2-1315); assay: competition ELISA on TeNT, binder biotinylated; competitor SVT15L-3FW4M
[6] = target: T4, tetanus neurotoxin (TeNT), authentic …; assay: ELISA, directly coated TeNT, unlabelled binder
[7] = target: T4, tetanus neurotoxin (TeNT), authentic …; assay: ELISA, TeNT captured with cAb-TT2, biotinylated binder
[8] = target: T5, recombinant tetanus toxin fragment C (rTTC) (Clostridium tetani, UniProt P04958 865-1315); assay: ELISA, rTTC captured with coated mAb 6E7
T5 sequence: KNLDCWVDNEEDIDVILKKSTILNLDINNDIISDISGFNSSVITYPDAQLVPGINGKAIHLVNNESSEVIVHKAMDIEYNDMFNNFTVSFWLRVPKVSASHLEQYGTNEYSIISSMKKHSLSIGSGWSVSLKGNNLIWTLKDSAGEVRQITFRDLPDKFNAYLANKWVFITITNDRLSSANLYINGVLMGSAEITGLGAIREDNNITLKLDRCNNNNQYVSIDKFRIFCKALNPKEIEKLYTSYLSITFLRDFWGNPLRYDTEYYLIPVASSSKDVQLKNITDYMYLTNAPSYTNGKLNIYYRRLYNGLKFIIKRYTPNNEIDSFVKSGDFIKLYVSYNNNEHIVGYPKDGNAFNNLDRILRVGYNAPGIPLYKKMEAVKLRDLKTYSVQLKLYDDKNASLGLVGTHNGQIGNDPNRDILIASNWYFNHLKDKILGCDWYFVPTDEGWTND

[9] = target: T4, tetanus neurotoxin (TeNT), authentic …; assay: ELISA, TeNT captured with cAb-TT2, unlabelled binder
[10] = target: T4, tetanus neurotoxin (TeNT), authentic …; assay: GT1b-TeNT inhibition ELISA, EC at A450 0.59
[11] = target: T4, tetanus neurotoxin (TeNT), authentic …; assay: competition ELISA on TeNT, binder biotinylated; competitor mAb 6E7
[12] = target: T4, tetanus neurotoxin (TeNT), authentic …; assay: competition ELISA on TeNT, binder biotinylated; competitor SVT34L
[13] = target: T4, tetanus neurotoxin (TeNT), authentic …; assay: ELISA, directly coated TeNT
[14] = target: T4, tetanus neurotoxin (TeNT), authentic …; assay: competition ELISA on TeNT, binder biotinylated; competitor SVT06L
[15] = target: T4, tetanus neurotoxin (TeNT), authentic …; assay: ELISA, directly coated TeNT, biotinylated binder
[16] = target: T4, tetanus neurotoxin (TeNT), authentic …; assay: competition ELISA on TeNT, binder biotinylated; competitor mAb 6F57
[17] = target: T4, tetanus neurotoxin (TeNT), authentic …; assay: GT1b-TeNT inhibition ELISA, unlabelled binder
[18] = target: T4, tetanus neurotoxin (TeNT), authentic …; assay: competition ELISA on TeNT, binder biotinylated; competitor SVT16L
[19] = target: T4, tetanus neurotoxin (TeNT), authentic …; assay: competition ELISA on TeNT, binder biotinylated; competitor SVT03L
[20] = target: T4, tetanus neurotoxin (TeNT), authentic …; assay: competition ELISA on TeNT, binder biotinylated; competitor mAb 11n185
[21] = target: T5, recombinant tetanus toxin fragment C …; assay: ELISA, directly coated rTTC, unlabelled binder
[22] = target: T4, tetanus neurotoxin (TeNT), authentic …; assay: ELISA, TeNT captured with coated mAb 6E7
[23] = target: T4, tetanus neurotoxin (TeNT), authentic …; assay: competition ELISA on TeNT, binder biotinylated; competitor SVT13L
[24] = target: T4, tetanus neurotoxin (TeNT), authentic …; assay: competition ELISA on TeNT, binder biotinylated; competitor SVT15L
[25] = target: T4, tetanus neurotoxin (TeNT), authentic …; assay: competition ELISA on TeNT, binder biotinylated; competitor SVT02L
[26] = target: T4, tetanus neurotoxin (TeNT), authentic …; assay: competition ELISA on TeNT, binder biotinylated; competitor mAb 14F5
[27] = target: T4, tetanus neurotoxin (TeNT), authentic …; assay: competition ELISA on TeNT, binder biotinylated; competitor SVT22L
[28] = target: T4, tetanus neurotoxin (TeNT), authentic …; assay: competition ELISA on TeNT, binder biotinylated; competitor SVT08L
[29] = target: T6, dog albumin (dog Alb) (dog, UniProt P49822 25-608); assay: ELISA: coated dog Alb, anti-his6 PO
T6 construct: also called Canine albumin

[30] = target: T6, dog albumin (dog Alb); assay: ELISA: coated dog Alb, anti-his6 PO; remark: listed apart in the source

Row | Binder | absorbance at 450 nm [1] [A450] | absorbance at 450 nm [2] [A450] | absorbance at 450 nm [3] [A450] | binding result [4] | % inhibition of binding [5] [%] | EC resulting in A450 0.2 [6] [ng/mL] | maximal absorbance at 450 nm [6] | EC resulting in A450 0.2 [7] [ng/mL] | maximal absorbance at 450 nm [7] | absorbance at 450 nm [8] | EC resulting in A450 0.15 [9] [ng/mL] | maximal absorbance at 450 nm [9] | concentration giving A450 of 0.59 [10] [µg/mL] | % inhibition of binding [11] [%] | % inhibition of binding [12] [%] | absorbance at 450 nm [13] | % inhibition of binding [14] [%] | EC resulting in A450 0.4 [15] [ng/mL] | maximal absorbance at 450 nm [15] | % inhibition of binding [16] [%] | other results
1 | SVA02 (VHH, not shown: large carriers) VHH: QVQLQQSGGGLVQAGGSLRLSCAASGRFFSRQVMGWFRQAPGKDREFVGVISWDNGVTFYSDSVKGRFTMSREIAKKTVHLQMNSLKPEDTAVYYCAAGNALHSRYYSPSKYDYWGPGTQVTVSS | 0.065 | 1.9 | 1.87 | no binding | – | – | – | – | – | – | – | – | – | – | – | – | – | – | – | – | –
2 | SVT16L (VHH) VHH: QVQLQESGGGSVQAGDSLRLSCAASGRTISNYAMGWFRQAPGKQREFVAAISRSDNTYYTDSVKGRFTISRDNAKNTLYLQMNSLKPEETAVYYCAADPNLMYESKWKYRALEAWGQGTLVTVSS | – | – | – | – | 17 | 1.1 | 1.57 | 1.6 | 0.971 | 1.38 | 3.2 | 0.363 | 0.047 | 6 | 95 | 1.27 | -8 | 0.52 | 1.42 | 2 | minimal absorbance at 450 nm [17]: 0.129; % inhibition of binding [18]: 95%; % inhibition of binding [19]: -1%; % inhibition of binding [20]: -2%; maximal absorbance at 450 nm [21]: 1.01; absorbance at 450 nm [22]: 1.13; % inhibition of binding [23]: 96%; % inhibition of binding [24]: 12%; % inhibition of binding [25]: 13%; % inhibition of binding [26]: 6%; % inhibition of binding [27]: 96%; % inhibition of binding [28]: 2%
3 | SVT16-L123Q-GS2-SVA12M2-H6 (bispecific antibody) QVQLQESGGGSVQAGDSLRLSCAASGRTISNYAMGWFRQAPGKQREFVAAISRSDNTYYTDSVKGRFTISRDNAKNTLYLQMNSLKPEETAVYYCAADPNLMYESKWKYRALEAWGQGTQVTVSSGGGGSGGGSEVQLVESGGGLVQAGGSLRLSCAASGRTFSYYPMAWFRQAPGQEREFVAAIIGADTTYYADSLKGRFTISRDNAKNMVYLQMNSLKPEDTAVYYCAARNTYWSDVYYREGQYTNWGQGTQVTVSSHHHHHH | – | – | – | – | – | – | – | – | – | – | – | – | – | – | – | – | – | – | – | – | Effective SDA Concentration at A450 0.2 [29]: 34 ng/mL; maximal absorbance value [30]: 1.78 A450
4 | SVA06 (VHH) VHH: QVQLQESGGRLVQAEDSLRLSCAASGRTFVSYDMGWFRQAPGKEREFVAAINWRGYTTDYVDSVKGRFFISRDIAKSTVYLQMNNLKPEDTAVYYCAARQMSGSSRYSPPGRVGYDFWGQGTQVTVSS | 0.067 | 1.66 | 1.99 | no binding | – | – | – | – | – | – | – | – | – | – | – | – | – | – | – | – | –
5 | SVT15L-3FW4M (VHH) VHH: QVQLQESGGGLVQTGGSLRLSCRASGRAFANYHFGWFRQAPGKDREFVASISWKGGSTYYANFALGRFTSSVDRAESSVYLQMSGLTPEDTATYYCAAHDGGDWNYHTGMDYWGQGTQVTVSS | – | – | – | – | 95 | 3.8 | 0.817 | 3.5 | 0.697 | 0.528 | 9.8 | 0.195 | 0.039 | 6 | 3 | 0.477 | 7 | 2 | 1.37 | 6 | minimal absorbance at 450 nm [17]: 0.127; % inhibition of binding [18]: 3%; % inhibition of binding [19]: -8%; % inhibition of binding [20]: -1%; maximal absorbance at 450 nm [21]: 0.206; absorbance at 450 nm [22]: 0.236; % inhibition of binding [23]: -5%; % inhibition of binding [24]: 96%; % inhibition of binding [25]: 10%; % inhibition of binding [26]: 2%; % inhibition of binding [27]: 4%; % inhibition of binding [28]: 6%
6 | SVA16 (VHH, not shown: large carriers) VHH: QVQLQESGGGVVQAGGSLRLSCAASGRTVSSSAMGWFRLAPGKEREFVVGISRSGGSIFYADSVKGRFTISRKNAKNTVDLQMNSLKPEDTAVYYCAAGYRPGYGDYGRVFYREDEYDDWGQGTQVTVSS | 0.083 | 2.11 | 2.02 | no binding | – | – | – | – | – | – | – | – | – | – | – | – | – | – | – | – | –

From patent US20240376185A1 (SMIVET B V, published 2024)
